# Reference: a protein production outcome set (Wang et al. 2014)
# Test: label from the status in PepcDB records
# 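Note: failed if final PepcDB status was selected cloned or expressed and not failed if soluble or beyond.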
row,Sequence,protein production
1,MIHAVAPCCPHAPRTTWEFHLRLLPLATALTLAVAMGVTPAQENRLPDIGSSAGELLTPARQAEYGKMMLAELRNYDYVLDDPLITDWLQTMGTRLGANSDQPQQPFTFFMLRDRQINAFATLGGYVAVNAGLVLTAEREDEVAAVLSHEIAHVTQQHVLRAVERAQRDQIPILLGMLAAVVAAQQAGGNSKGDATMATITSAMGLMQQRQIDYTRSNESEADRLGIRTLARSGYDVDAMAGFFERMSVAMRANEGGYSAPDFLQTHPVTVTRISEAKARAEQMKKNTVVLTTSVPGGSRQERVDPADPSLSEPLSHNGNALLPYALRLPVDALSRGADQQGFDWAKERLRVLSAATPDAAIREYENLRRSAKQGLSDAQRYGLALAKLRNSGGRPSEPVAELSSLLEAHPDNLWLALGLSQAQARVGQREAANARFDALLKQLPNNRAVALTYASALNEQASKESGQRARQVLEPLVHRSSDDPLLQQSYARACELSGDQLRASEAYAEAAFLNGRAEQALIQLEALKKKDLDYVTRARVDARIAAITPTVLELRRQGIRDPDLSTR,failed
2,MIHVREFQASDSDVVLHLLDLKDIINSSSFSEKVFQLSESGDFLGLVAEANQSGKHQVVGCAFLRLLETISRGLHCQIEELAIDKAWLHQGVGKSLMETATSWAKERGVGDIYVDSPYASIAVKEGIDSVFVRDEVLEVAQQYEAEKEELQESLKKQYNTTISKLEKEYEAKKQQQDETIHNLQTQLEDATQYLEEQQAEENELLNIDPSSPRNHTGPYPRGRGFWGTLCFPIRKTCGPGSCLRLPSGPASVRGSTDRSN,not failed
3,MIHWRNCLASAVPKLAVIAHDLIQVWVCWVALHAARYSMLVHPPGLPYVDWRTLVVLIAQAVVFWRVGLYRGLWRFASVPDLWNIFKSAFSGLIVIVLVLSVTRFEGVPLSVLVVYPFALSVLLGMPRLLYRAWKDYQLIHPVDSSERVLILGAGRTAEALVRDMRRTGAFVPVGFIDDAVYLRGAKIQGLNVLGRLEEVSTIARETAAKLLVIAIPSLDAAGMQRVVAMCESTGLPFRMVPKLIDVLEGRTLPCQLKEVSIEDLLNRKPVIPDWRLIRSWLSGKTVMVTGGGGSIGSEVCRQCARHGASRVVIVEIDELALLTIHSDLRRLFPDIEVLPILGDCGDAAVIAHALRCVRPDAVFHAAAYKQVPLLEEQLREAVRNNVLATENVARHCVAAKIQTFVFISTDKAVEPVNVLGATKRYAEMVCQSFDAKSTGTRFVTVRFGNVLDSAGSVVPLFREQIRQGGPVTVTHPDVTRYFMTISEACQLILQAAALASHGAIYTLDMGEPVRINLLAEQMIRLAGKQPGRDIVIVYTGLRPGEKMHETLFYADENYRPTAHPNILEADVRTFPQEQVLQSVMRLREAVQHYDTVEIESVISMLMPDFHAARHKKETRFETVVPFPAREVRRL,failed
4,MIIAIPVSENRGKDSPISEHFGRAPYFAFVKVKNNAIADISVEENPLAQDHVHGAVPNFVKEKGAELVIVRGIGRRAIAAFEAMGVKVIKGASGTVEEVVNQYLSGQLKDSDYEVHDHHHHEHH,not failed
5,MIIDDIINKIKSSNKIAISFHISPDGDSIGSSLGLLNGLRSIGKETYILSKEVVPESFEFLNFAREIDGNHFEVEDNTDLLITLDCGNIERLNFDTSDMISEDKKYTVINIDHHVTNDSFGDLNYINTKAASVGEIVYDLLSKMNISIDRTIAACLYTSILTDTGSFRFSNTTLNTHVVAGNLISTGLDFSEIHRKIFDNKKFEALKLQALVLNDMYLTFNNKLCVMKVTHDFIEKANAEDVDTGDLVSLGLKVNTAEVCMLLKEKDDCIKVSLRSKSYVDVRKIAEKFGGGGHIRAAGLSINSNILDAEKMILSEIQGELLEHHHHHH,failed
6,MIIGCSASQKLAASVADLLDEPLCPVETRKFPDGERYIRVKEEVEGEVTVVQSTGYPQDENLMELLFMIENLKDLGADYVRAAIPYFGYGRQERRFKSGEAVSAKIVAHLLEAAGADEIVTVNLHENCLSEFFRVPVRELSAMPLIAEHISFLDDPVIIAPDKGALGHAREVSDILGCECDYMEKVRISPEVVETRVSDLDVEGKDAVVVDDIISTGGTIVNAAGILGKCGASSITVCCVHPVLVEDALLKIFSAGVERVIATDTLKSDVSEISVAPLIADVMKD,failed
7,MIIIKNGALVTPQGLRRADLAMEGDKIVRIAAAIEPGEDDTVQDATDCWVFPGFIDGHTHMQCWTGMDWTADSFETGTRAAVCGGTTTIVDYATADRGVTMPDALVEWHHRADGTCTANYAFHMALAEWNERNRADLSAMREAGVSSFKTYFAYDHLRLDDAETLEVLEELKRVGGILCVHCENGTLVNALQKRVFEQGIHGPEGHALSRPDVCEGEAVSRLLYLAHLAGDAPVNVVHLSTKLGLEAIRAAKARGQKNIYVETCPQYLMLDDTCYLEQGEDGFAGAKYVMSPPLRHAGDRAALREALVAGEIDTIATDHCSFNLHGQKDRGRDDFRAIPNGGPGVEHRPVAIATSFEGQLGPEDLCRLMSENPARVFGMYPRKGCLAEGADADVCVWDPQARWTIRAATQHQAVDYTPLEGFEAHGRAKAVFVNGVLAARDGEPTGAQPGRYVPR,failed
8,MIILSFYKLLERVICVHSITTYWWKYYLASFFSILVIGIVISSLNINIPYFFLIQIGLVFSLWYLISPIIMILVFKMRRAPQDVTFMVEDLSKKYNVKLSKVYIINDNFLNAFAFGNIIFRGIAVTSPLYESLVQEELAAVLSHEIAHIKNYDPEVMLLTIFSINSIYAALIYYLPLVSLFFLIIYFVILLPSVFYVHRKIEKRADLTAVKVNPDITYWLESSLIKIGYLSRSIPTNMLRYVPPIQIFLAKEFIVNHIVDEKSVLSFRTHPSLKERLLYLSQYEKQKMYYI,failed
9,MIIMLSEYLEEFKEYLERFKNIDINFSDVLKMSKKFIIWRLKQIFGDSSTIFTNISSEITIFDKIFQMIDYDIDGEVEKRLPKDESRFMIGVRREKEIEIKKEIITNLLDFLLIILLSHTPYFNAFVRKYAEIKKIKVIKKLPNKISVWEFIKIASRSRINDLHLERLDLENGFVDITKIKEIFAKEIIRVELMKLGENIKKRKLPDDSVVKELLNEISDYLKDKVKYEQISGIKALNYKGNIPLEWHPPCIRGILNDILSGGSPSHYARRSFVVYWFCAKFNPNLRPLDKNGNLVNVSATDIASEEEIERFIDELIEMLFKNVEDFDEKKTRYYIMHNIGYKVGHGRLTHCEYCKNWQDDGGKGLSYYCKPDELCKKKFIIHPLDYLCYNINKHLKKERFKKIKKEDKNGDNKLEHHHHHH,not failed
10,MIIMVTEVDVLVIGAGPAGSTAAKHAALGGADVLLIDKKSEIGAPKRCAEGVSIGGLESLGIEPNPRWITKKLDGVRMVSPNGTDVWLTSDKVELPEAGYILERKVFDKFMAMDAARAGSRIMVKTIATGMERTDDGYLVSAECMGEKFEIKARIVIAADGPESRVARWAGLNTATRPKDMESAAQFEMVGVEMEDNNCIEFYFGSVAPGGYALDIPEGDDIANVGLGVLSTETDKSAYEHLLEFVESCPATRNAQPVELNIGGDPVGGMPKKLVADSLMVVGDAAGQVNPLTGGGIISGMKGGMLAGQVAAAAVSEGDVTARRLGEYERLCREEIGDEISKYLKVKEYLLTLSDSELDSIAEAFQDVEFEKVSTTELVKKLIKVSPKALLKLGKLFLEHHHHHH,failed
11,MIIPDLFRLNDWSTRRFNLFIWSILVAYDFSFISNVPLYSIEILSKILGFVILTFIPGYIILRIFKVHDIDRVVTLLLAIGLSLSFIMIFGFTVNMFLPYIGVSKPISTFPLFYSLNISILVLMIIYYFRDKKFNSSQNQLRITFSPMLFYFILLPLFSILGTESVNHYNFNMPVLILLFVISLSPILIALDRISRDLYPFMILSISLAILYNMNLISTHLWSYDIFYEAHTSKYVLENGIWNPGNKTMVPLLLFTILSPVYSLICDLNVIWVFKIIFPFFFSLTPLALYYVYKELDFGNYKIDSEIAMLSVFVFIFFYGFYKDMPDKQHIAELFLALILILSIFNTQKRILLFIFSFSLVVSHYGISYFFVFSLIFVSMMSRFRVNADTSFLTPTYTLLFSVLTFSWYIYISAGDVFEVITQVGYHFLSGIKDIFQANNDGRSASAYLSYLSNGILWVIYMLIHLILQFFIFIGVLNLLLSIMHNKTKSFEIALLTIIFYAFLFVQFFKTYGMGLDRILQITLILLSPLSIWGYSFCVKNLNSVYARIISKRIYRNKENGNLNLIFESTLTRNEAINKNHITNLSKKARLCFSIFLMIFFVFNSGFIFWMTGYPLPGYCININPNSGWPVYSESEICGVDWLKSHENEHNRIAVFNQWDTIKSRDGLLVAENFYSKDLIPIQTNTTTLYNSYLFLGKYSVDKVEDGEEDVDLQDTLFYNSTLKNSNKIYNSEKSHLYLAE,failed
12,MIIPMNNKHPLPTPLVSIIIPVYNVEKYLYRCVKSILSQDYYDYEIILVDDGSTDGSGMICDELTEQHGHISVIHKPNGGQGSARNAGLNHAKGKYIWFIDSDDYISPHSLSVIMSQITQGDFDALFFPYIKSNGNILIGEAVGKYHAGVYRGQQLLLEGLVNMSMCTIVSLRSRWIDNRIFFREDIHFEDFEINPRVLKFLERAIFLDSNIIPYIYYTRLGSTMNQLDPQKRMRQTEDFLRIEKSWKEWFNLDSPEPNSYDMLMLRTGTNMLHRNLLNFVRNSNFSISTKLKLYAQYRKKGVFSWFYNGYRRDPYVGCTSVRVFWNTIGRSYILFSLFSIVEEIWKKIRK,failed
13,MIIRIKHYGEVKIEDSKNLLLNLIENRIGIDNICNGKGTCGKCKVRFRQGVPEATSADLRYLSVEELEEGVRLACQVKPQKGMEIDVTLSNSFDRKNTVLRRDDQVALDSGLSGISLTIPQPSLEDERGDWDRIIDEYRKVMPEQGLALPSLGVLERLPGTLRKLDYRITAVTWQNRVIDVQPGHDTALHGLAVDIGTTSVAVALIDLKTGEVLGSVSAENGQTAFGGDVISRIAYAGEGLKNRLQLTAAVRSTINTLIDELVLQHEIVRNSIYKMTIVANTTMSHLFLGLDVSNLAVSPYVSVYNQALEFSAKELGLGSNPEAVVQILPNIGSFVGGDTVGALLGAPEVLTQGNHLLLDLGTNCELVLKTEKMMLACSTAAGPAFEGAGIFHGMRAKPGAIEGIRIHEEGVELRVIGDEEALGICGSGLIDGIAQMRQAGIINRKGAFVDPDHKDCSLSDELKSRIRKKEDYWEFVFAFGRQHKKDISLGQRDIEALQLAKGAVCAGIKTLVSLAGISLRDLDSIVMAGTFATYLKKESILSIGLTPHTDPEKIKMAGNAAHLGAIRTLLNQGTFAEGAELARRIQHIELGGDKTFTNFFMRSMYLEPTD,failed
14,MIIRPIIKNDDQAVAQLIRQSLRAYDLDKPDTAYSDPHLDHLTSYYEKIEKSGFFVIEERDEIIGCGGFGPLKNLIAEMQKVYIAERFRGKGLATDLVKMIEVEARKIGYRQLYLETASTLSRATAVYKHMGYCALSQPIANDQGHTAMDIWMIKDL,failed
15,MIISFVIQVGLFPDSLERKVIRHIENGDHLTCFLFLNYLHVLIQGFSFGGYRVLYKERELSRICPAIRFQRKSFTEVRMILSHHPSFSLVNDPQEIAQIAEWGEEQIAQYKERVTGEGKQRDIDRGKPMAQASLDEAAFLLNLASLEGTWDESLERVAQCYKEAGLNDIAKFVLYRD,failed
16,MIITIPIKNQKDIGTPSDSVVVLGYFDGIHKGHQELFRVANKAARKDLLPIVVMTFNESPKIALEPYHPDLFLHILNPAERERKLKREGVEELYLLDFSSQFASLTAQEFFATYIKAMNAKIIVAGFDYTFGSDKKTAEDLKNYFDGEVIIVPPVEDEKGKISSTRIRQAILDGNVKEAGKLLGAPLPSRGMVVHGNARGRTIGYPTANLVLLDRTYMPADGVYVVDVEIQRQKYRAMASVGKNVTFDGEEARFEVNIFDFNQDIYGETVMVYWLDRIRDMTKFDSVDQLVDQLKADEEVTRNWS,not failed
17,MIIWSGWGFLVAIIVIINTLLGKAIFGSITGDATYFQDHSWPMAVMFIISGVMSWYLGKYINKPDGKVYIDAETGEKVMFNKKHSLFFIKMEYWGPILGVIAIVTLITR,failed
18,MIKFYQYKNCTTCKKAAKFLDEYGVSYEPIDIVQHTPTINEFKTIIANTGVEINKLFNTHGAKYRELDLKNKLQTLSDDEKLELLSSDGMLVKRPLAVMGDKITLGFKEDQYKETW,not failed
